Results from patent US20250304670A1 (AstraZeneca / MedImmune, published 2025).

B1: Abet0007 sFab (Fab, V domains shown)
VH: EVQLLESGGGLVQPGGSLRLSCAASGFTFSVYTMWWVRQAPGKGLEWVSVIGSSGGTTVYADSVKGRFTISRDNSKNTLYLQMNSLRAEDTAVYYCAREGQQLVRPYYYYGMDVWGQGTLVTVSS
VL: QSVLTQPPSVSVSPGQTASITCSGHNLEDKFASWYQQKSGQSPVLVIYRDDKRPSGIPERFSASNSGHTATLTISGTQATDEADYYCQAQDSTTRVFGGGTKLTVL
notes: soluble single chain Fab fragment (sFab) from the Dyax Fab310-Lambda library, histidine tagged, purified from E. coli; also called Abet0007 Fab; purified Abet0007 Fab
B2: Abet0144-GL IgG1-TM (antibody, V domains shown)
VH: EVQLLESGGGLVQPGGSLRLSCAASGFTFSVYTMWWVRQAPGKGLEWVSVIGSSGGTTVYADSVKGRFTISRDNSKNTLYLQMNSLRAEDTAVYYCAREWMDHSRPYYYYGMDVWGQGTLVTVSS
VL: SYELTQPPSVSVSPGQTASITCSGHNLEDKFASWYQQKPGQSPVLVIYRDDKRPSGIPERFSASNSGHTATLTISGTQAMDEADYYCQAQDSTTRVFGGGTKLTVL
notes: human IgG1 with the triple mutation L234F/L235E/P331S (TM), human lambda light chain; also called Abet0144-GL (germlined) IgG1-TM

Key:
[1] = target: T1, Biotinylated Murine Amyloid Beta 1-42 peptide (murine, not fully specified; N-terminal biotin); assay: direct binding HTRF, purified sFab and biotinylated peptide
T1 construct: Anaspec 61718-01
T1 peptide: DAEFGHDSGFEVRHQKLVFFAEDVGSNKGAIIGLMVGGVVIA

[2] = target: T2, Biotinylated Human Amyloid Beta 1-40 peptide (human, N-terminal biotin); assay: HTRF direct binding: dilution series of purified His-tagged Fab with biotinylated human Amyloid beta 1-40 peptide, streptavidin cryptate and anti-6his-XL665 (sections 1.3, 1.4)
T2 construct: synthetic
T2 sequence (peptide, as listed by the source): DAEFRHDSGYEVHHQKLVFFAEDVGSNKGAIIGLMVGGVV
Description: (§1) Selection outputs were screened as unpurified bacterial periplasmic extracts containing sFab, prepared in 50 mM MOPS buffer pH 7.4, 0.5 mM EDTA and 0.5 M sucrose. Ten microlitres of unpurified sFab samples were added to a Costar® 384 well assay plate (Corning, USA; cat: 3676). This was followed by the addition of 5 μl of 20 nM synthetic human Amyloid beta 1-42 and 5 μl of a combined solution of 6 nM streptavidin cryptate and 20 nM anti-his-XL665. Non-specific binding wells (negative controls) were defined for each plate by using a negative control unpurified sFab in place of the test sFab sample. Cross-reactive sFab clones were identified using a concurrent assay with human Amyloid beta 1-40 peptide. […] Assay plates were incubated for 4 hours at room temperature prior to reading time resolved fluorescence on an EnVision plate reader (PerkinElmer, USA) using an excitation wavelength of 320 nm and measuring the emission at 620 nm and 665 nm (100 flashes).
(§2) The sFab with unique protein sequences were expressed in E. coli and purified by affinity chromatography (essentially as described (Bannister et al., 2006)). The Amyloid beta binding profile of each purified sFab was determined by testing a dilution series of the purified sFab in the HTRF™ assay described in section 1.3, substituting the unpurified sFab periplasmic preparation with the purified sFab.

[3] = target: T3, Biotinylated Human Amyloid Beta 1-42 peptide (human, N-terminal biotin); assay: HTRF direct binding: dilution series of purified His-tagged Fab with biotinylated human Amyloid beta 1-42 peptide, streptavidin cryptate and anti-6his-XL665 (sections 1.3, 1.4)
T3 construct: synthetic (rPeptide A1117 or Bachem H-5642); also called N-terminal biotin Abeta 1-42; synthetic biotinylated human Amyloid beta 1-42 peptide
Description: as §1, §2

[4] = target: T4, Biotinylated Scrambled Amyloid Beta 1-42 peptide (N-terminal biotin); assay: direct binding HTRF, purified sFab and scrambled peptide
T4 construct: Anaspec custom synthesis; control peptide; also called scrambled human Amyloid beta 1-42 peptide; biotinylated scrambled human Amyloid beta 1-42
T4 peptide: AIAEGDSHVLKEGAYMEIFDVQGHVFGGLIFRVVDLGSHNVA

[5] = target: T2, Biotinylated Human Amyloid Beta 1-40 …; assay: SPR (BIAcore T-100), antibody amine-coupled to a CM3 chip, peptide analyte at 400 nM (section 2.9)
Description: (§3) The affinity of binding between each test IgG and each peptide was estimated using assays in which the antibody was covalently coupled by amine-linkage to a proprietary CM3 chip surface to a final surface density of approximately 2,000 RU. The chip surface was regenerated between cycles by a single 40 second injection of 10 mM Glycine pH 2.0 to remove ligand bound to the antibody.
(§4) Blank reference flow-cell data were subtracted from each IgG dataset and a zero-concentration buffer blank was double-reference subtracted from the main dataset to reduce the impact of any buffer artefacts or non-specific binding effects.

[6] = target: T4, Biotinylated Scrambled Amyloid Beta …; assay: as above
Description: as §3, §4

[7] = target: T5, Amyloid beta plaques on Tg2576 mouse brain sections (human (transgene in Tg2576 mice), UniProt P05067 672-713); assay: in vitro immunohistochemistry, core plaques
T5 construct: mixture of Amyloid beta species in tissue; also called Tg2576 brain sections; Amyloid beta plaques in aged Tg2576 mice

[8] = target: T6, Amyloid beta plaques on human Alzheimer's Disease brain sections (human, UniProt P05067 672-713); assay: in vitro immunohistochemistry, core plaques
T6 construct: mixture of Amyloid beta species in tissue; also called native Amyloid beta; human AD brain sections

[9] = target: T7, Human Amyloid Beta 1-40 peptide (human); assay: TR-FRET peptide competition: dilution series of unlabelled peptide against 1.5 nM biotinylated human Amyloid beta 1-42 peptide for 0.28 nM Abet0144-GL IgG1-TM (section 2.10)
T7 construct: synthetic, unlabelled; also called unlabelled human Amyloid beta 1-40
T7 sequence (peptide, as listed by the source): as the sequence (peptide, as listed by the source) above
Description: (§5) This involved the use of Europium cryptate labelled anti-human Fc IgG (CisBio International, France; cat: 61 HFCKLB) and XL665 labelled streptavidin (CisBio International, France; cat: 611SAXLB) TR-FRET detection reagents.
(§6) Experiments were set up in Costar 384 well shallow bottom microtitre plates. […] 5 μl of assay buffer only was added to the negative binding assay control wells. […] 5 μl per well of each test peptide serial dilution was then transferred onto the 384 well assay plate. 5 μl of assay buffer only was added to the total and negative binding assay control wells. […] Finally, a combined solution was prepared containing Europium cryptate labelled anti-human Fc (2.4 nM) and XL665 labelled streptavidin (60 nM). 5 μl per well of this solution was added to all wells of the 384 well assay plate such that the final concentrations of Europium cryptate labelled anti-human Fc and XL665 labelled streptavidin were 0.6 nM and 15 nM, respectively.

[10] = target: T8, Human Amyloid Beta 1-16 truncated peptide (human); assay: TR-FRET peptide competition against biotinylated human Amyloid beta 1-42
T8 construct: synthetic, unlabelled; also called Abeta 1-16
T8 peptide: DAEFRHDSGYEVHHQK
Description: as §5, §6

[11] = target: T9, human Amyloid beta pyro 3-42 peptide (human, pyroglutamate at residue 3 (the N-terminal residue)); assay: as above
T9 construct: the pyro form (Anaspec 29907) has no entry of its own; also called Abeta pyro-3-42; Abeta Pyro-3-42
Description: as §5, §6

[12] = target: T10, Human Amyloid Beta 1-42 peptide (human); assay: SPR (BIAcore T-100), peptide over amine-coupled IgG, 1:1 Langmuir fit
T10 construct: synthetic, unlabelled; also used here for the endogenous peptide of human plasma in the depletion assay; also called unlabelled human Amyloid beta 1-42; synthetic human Amyloid beta 1-42 peptide
Description: as §3, with “human Amyloid beta 1-42” for “each peptide”, “amine linkage” for “amine-linkage”
as §4, with “effects. An appropriate binding model was then fitted simultaneously to the data from each analyte titration using the BIAevaluation software.” for “effects.”

Row | Binder | binding result [1] | binding result [2] | EC50 (read off the curve) [3] [nM] | binding result [4] | binding result [5] | binding result [6] | plaque staining score (0-4) [7] | plaque staining score (0-4) [8] | binding result [9] | binding result [10] | binding result [11] | Kd [12] [nM] | koff [12] [s⁻¹] | kon [12] [M⁻¹ s⁻¹]
1 | B1 | binds | no binding (tested: 1e-7 M (Log M -7)) | ~6 | no binding | – | – | – | – | – | – | – | – | – | –
2 | B2 | – | – | – | – | no binding (tested: 400 nM) | no binding (tested: 400 nM) | 1 | 1.5 | no binding (tested: 1e-5 M (logM -5)) | no binding (tested: 10 uM) | binds | 9.5 | 0.00197 | 208000
